Where no end group is shown, it is not given here.
T1: human Neuropeptide Y receptor type 2 (human, UniProt P49146 1-381)
T1 sequence (looked up): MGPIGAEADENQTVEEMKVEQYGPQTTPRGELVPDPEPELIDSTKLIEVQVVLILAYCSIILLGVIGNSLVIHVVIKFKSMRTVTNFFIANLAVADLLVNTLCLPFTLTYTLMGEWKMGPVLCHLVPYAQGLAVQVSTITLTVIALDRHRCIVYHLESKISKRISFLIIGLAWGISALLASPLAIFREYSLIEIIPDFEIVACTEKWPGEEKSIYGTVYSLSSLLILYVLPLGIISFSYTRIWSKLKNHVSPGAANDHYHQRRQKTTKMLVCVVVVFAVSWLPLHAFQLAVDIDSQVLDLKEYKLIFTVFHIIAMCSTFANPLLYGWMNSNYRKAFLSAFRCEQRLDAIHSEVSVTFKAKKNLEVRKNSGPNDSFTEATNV


Target: T1, human Neuropeptide Y receptor type 2
Test: cell-based or functional assay

hNPY Y2 pEC50 (melanophore assay)	Binder
9.8	PKPEAPGKDASPEELNRYYASLRKYLNWVTRQRY-NH2 [Example 31]
9.8	PKPEAPGKDASPEELNRYYASLRKYLNWLTRQRY-NH2 [Example 2]
9.6	PKPEHPGKDASPEEWNRYYASLRKYLNWVTRQRY-NH2 [Example 25]

Target: T1, human Neuropeptide Y receptor type 2
Test: cell-based or functional assay
Remark: another data set of the same source

Binder	hNPY Y2 pEC50 (melanophore assay)
IKPEAPLSKQLEEEAVRYYASLRHYLNLVTRQRY-NH2 [Peptide 2]	8.6
PKPEAPGCDASPEEWNRYYASLRKYLNWVTRQNY-NH2 [Peptide 1]	7.9

Now from value to binder:

hNPY Y2 pEC50 (melanophore assay)	Binder
9.3	IKPPYPGCDASPEEQNKYYASLRAYWNLVTRQRY-NH2 [Peptide 8]
8.2	PKPEAPGCDASPEEWNRYYASLRKYLNWVTRQHY-NH2 [Peptide 14]
8.7	PKPEAPLSKQLEEEAVRYYASLRHYLNLVTRQRY-NH2 [Peptide 21]
9.2	PKPEAPGEDASPKEWNRYYASLRKYLNWVTRQRY-NH2 [Peptide 3]
8.9	PKPVAPGCDASPAELNRQYSDLRNYWNLVTRQRY-NH2 [Peptide 15]

Reference: patent US20140329742A1 (GlaxoSmithKline, published 2014)
